{"source": "patent US8173771B2", "about": "“Humanin receptor or humanin-like polypeptide receptor” (Keio Univeristy, priority 2005, dated 2012)", "molecules": {"B1": {"name": "G-CSF: human G-CSF, ligand stimulating G-CSFR/gp130 chimera proteins (protein, UniProt P09919 31-207, looked up)", "Granulocyte …": "TPLGPASSLPQSFLLKCLEQVRKIQGDGAALQEKLVSECATYKLCHPEELVLLGHSLGIPWAPLSSCPSQALQLAGCLSQLHSGLFLYQGLLQALEGISPELGPTLDTLQLDVADFATTIWQQMEELGMAPALQPTQGAMPAFASAFQRRAGGVLVASHLQSFLEVSYRVLRHLAQP"}}, "key": {"[1]": {"system": "G-CSFR/gp130 chimera proteins", "assay": "G-CSF stimulation of G-CSFR/gp130 chimera proteins in F11 cells, cell mortality by Trypan blue exclusion", "assay_type": "cell-based, human", "settings": "100 nM", "protocol": "(§1) B) F11 cells were transfected with 0.5 μg of the pcDNA3 vector or pcDNA3-APP in association with 0.5 μg of the pEFBos vector or the pEFBos vectors encoding the extracellular domain of the human G-CSF receptor fused to the full transmembrane domain and a C-terminally truncated intracytoplasmic domain of gp130 (named “G-CSFR/gp130”). G-CSFR/gp130 (277) contains the full intracytoplasmic domain of gp130 corresponding to amino acids 1-277, while G-CSFR/gp130 (25), (68), and (133) contain the intracytoplasmic domains corresponding to amino acids 1-25, 1-68, and 1-133, respectively. At 24 hr after transfection, the cells were added with indicated amounts of human G-CSF. Cell mortality was determined by Trypan blue exclusion assay at 72 hr after transfection. The results of immunoblot analysis of the expression of […] are shown in photos.\n(§2) C) Instead of the pcDNA3-V6421-APP vector, pcDNA3-K595 N/M596L-APP (NL-APP), M146L-PS1 and N141-I-PS2 vectors were used to do the same experiments as in FIG. 2A. The results of immunoblot analysis of the expression of NL-APP, M146L-PS1 and N141-I-PS2 are shown in photos.\n(§3) D) F11 cells were transfected with 0.5 μg of the pEFBos vector or pEF-G85R-SOD1 in association with 0.5 μg of the pEFBos vector or each pEFBos vector encoding G-CSFR/gp130 (277) or G-CSFR/gp130 (25). At 24 hr after transfection, the cells were added with indicated amounts of human G-CSF. Cell mortality was determined by Trypan blue exclusion assay at 72 hr after transfection. The results of the expression of G85R-SOD1, which were confirmed by the immunoblot analysis, are shown in photos.\n(§4) Neurohybrid F11 cells and pcDNA3 vectors encoding V642I-APP, K595N/M596L-APP (NL-APP), M146L-PS1, and N141I-PS2 cDNA were prepared as already described (Hashimoto et al, 2000, 2001a, 2003). pCAG-human gp130 and pCAG-human gp130 ED (the extracellular domain of human gp130) were prepared as described (Kumanogoh et al., 1997). pcDNA3 vectors encoding the extracellular domain of the G-CSF receptor fused to the full-length transmembrane domain and various portions of the intracellular domains of human gp130, were prepared as described (Fukada et al, 1996). The intracellular domain of gp130 was C-terminally truncated. A chimera protein named G-277 contained a 277 amino acid-long full intracellular domain of gp130 (SEQ ID NO:35), while G-195, G-133, G-68, and G-25 contained the amino acids 1-195 (SEQ ID NO:36), 1-133 (SEQ ID NO:37), 1-68 (SEQ ID NO:38), and 1-25 (SEQ ID NO:39) intracellular portions, respectively. C-terminally myc-tagged human WSX-1 and myc-tagged mouse CREME9 cDNAs were amplified from human and mouse embryo cDNA (BioChain) by PCR using sets of sense primers and antisense primers: 5′-[…]-3′ (SEQ ID NO:3) and 5′-[…]-3′ (SEQ ID NO:4) for human WSX-1; 5′-[…]-3′ (SEQ ID NO:5); and 5′-[…]-3′ (SEQ ID NO:6) for mouse CREME9. Plasmids encoding C-terminally V5-tagged human CNTF-R (V %-CNTF-R) and rat IL-6R (pUCM18-rat IL-6R) were purchased from Invitrogen and American Culture Collection, respectively. A pEFBos vector comprising familial ALS (FALS) gene G85R-SOD1 was kindly provided by Dr. Shoji Tsuji. Cosmid of human wild […] was constructed by inserting a full-length gp130 into a SwaI site of pAxCAwt (TaKaRa).\n(§5) The transfection procedures were as described (Hashimoto et al, 2000, 2001a, 2003). F11 cells, seeded at 7×10^4/well in 6-well dishes, were transfected with indicated vectors. Transfection efficiency in these protocols has been determined to be invariably around 70%. At 72 hrs after transfection, the Trypan blue exclusion assay and LDH assay were performed as a cell-death assay and the WST-8 assay was performed as cell-viability assays (Hashimoto et al, 2000, 2001a b, 2003). HN was added to the culture medium usually at 5 hrs after transfection, but in some cases at 24 hrs after transfection."}, "[2]": {"target": "T1, G-CSFR/gp130 chimera proteins (Homo sapiens, UniProt P40189+Q99062)", "T1 construct": "the extracellular domain of the human G-CSF receptor fused to the full transmembrane domain; expressed in transfected cells; host or cells: F11 cells", "T1 sequence (Q99062+P40189 with tags, fused parts or gaps)": "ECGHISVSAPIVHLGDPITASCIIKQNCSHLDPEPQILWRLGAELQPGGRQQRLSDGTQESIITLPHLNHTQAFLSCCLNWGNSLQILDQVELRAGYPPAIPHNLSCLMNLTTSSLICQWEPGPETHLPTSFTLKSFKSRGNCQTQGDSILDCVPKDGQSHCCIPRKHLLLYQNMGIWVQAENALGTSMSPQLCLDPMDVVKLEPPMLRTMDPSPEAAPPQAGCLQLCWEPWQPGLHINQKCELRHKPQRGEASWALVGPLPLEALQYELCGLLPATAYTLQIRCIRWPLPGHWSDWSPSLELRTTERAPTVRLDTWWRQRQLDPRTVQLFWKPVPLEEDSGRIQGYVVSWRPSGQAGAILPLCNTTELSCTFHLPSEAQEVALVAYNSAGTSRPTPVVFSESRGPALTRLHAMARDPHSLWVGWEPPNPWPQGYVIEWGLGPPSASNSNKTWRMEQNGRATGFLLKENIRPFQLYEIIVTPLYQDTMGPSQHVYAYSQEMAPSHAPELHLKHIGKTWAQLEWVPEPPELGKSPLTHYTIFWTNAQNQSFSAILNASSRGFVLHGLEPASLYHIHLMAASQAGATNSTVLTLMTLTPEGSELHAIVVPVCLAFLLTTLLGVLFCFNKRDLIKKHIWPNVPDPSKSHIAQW", "assay": "G-CSF stimulation of G-CSFR/gp130 chimera proteins in F11 cells, cell mortality by Trypan blue exclusion", "assay_type": "cell-based", "settings": "100 nM; G-25 expressed", "protocol": "as §1, §2, §3, §4, §5"}}}
{"molecule": "B1", "values": [{"measurement": "prevention of neuronal cell death induced by mutant Cu/Zn-superoxide dismutase (G85R-SOD1)", "setting": "[1]", "value": "did not prevent"}, {"measurement": "prevention of neuronal cell death induced by V642I-APP", "setting": "[1]; G-25 or G-68 expressed", "value": "did not prevent"}, {"measurement": "prevention of NL-APP-, M146L-PS1-, N141I-PS2-mediated neuronal cell death", "setting": "[2]", "value": "not"}]}
